These results are taken from patent US20260070986A1 (AFFIMED, published 2026).

As usually defined, the Kd is the free concentration of one partner at which half of the binding sites on the other are occupied at equilibrium, for simple one-to-one binding. As usually defined, the koff is a measure of how fast the partners let go of each other. Usually kon stands for the second-order rate constant of association. The term EC50 (read off the curve) denotes the concentration at which the effect is half-maximal. Lower therefore signals an effect from little substance.

In assay [1] the target is T1, human CD16A (158F) on transfected CHO cells (cAg_34) (human, UniProt P08637 17-254).
T1 construct: Exact cell-anchored construct not described; also called huCD16A
Kind of assay: flow cytometry on huCD16A-transfected CHO cells (cAg_34), one-site fit of MFI, experiment 3. How it is done:
(§1) After washing in FACS buffer, cells were incubated in 50 μL FACS buffer without antibodies or with titrated antibodies starting at a concentration of 100 μg/mL followed by ten 5-fold serial dilutions for 30 min on ice in the dark. After washing twice, cells were incubated with APC-conjugated goat anti-human IgG (H+L)-APC (Dianova, cat. 109-136-088) for 30 min on ice in the dark. […] After washing, binding was measured by flow cytometry and mean fluorescence intensities (MFI) of cell samples were calculated and corrected for background staining using control cells stained with secondary antibodies only.
(§2) Equilibrium dissociation constants (KD) of antibody binding were calculated by plotting MFI values and fitting a non-linear regression model for one-site binding to hyperbolic dose-response curves using GraphPad Prism.
For orientation: A flow cytometer gives signals particle by particle.

The target of assay [2] is T1, human CD16A (158F) on transfected CHO …. Kind of assay: flow cytometry on huCD16A-transfected CHO cells (cAg_34), one-site fit of MFI, experiment 2. How it is done:
as §1, §2

Assay [3] addresses T2, recombinant cynomolgus CD16, biotinylated mFc.silenced/Avi-tagged (cynomolgus, UniProt Q8SPW2 17-208, biotinylated (Avi-tag)).
T2 construct: not shown: silenced mouse Fc (mFc.silenced) and Avi-tag
Kind of assay: SPR (Biacore), 37 °C, multi-cycle kinetics, biotin-captured antigen as ligand, antibody construct as analyte, 1:1 binding model. How it is done: (§3) After each cycle, chip surfaces were regenerated with 6M guanidine-HCl, 0.25M NaOH and reloaded with Biotin Capture reagent. Interaction kinetics were determined by fitting data from multi-cycle kinetics experiments to a simple 1:1 interaction model using the local data analysis option (Rmax and RI) available within Biacore T200 Evaluation Software (v3.1). Referencing was done against a flow cell without captured ligand (Fc2-Fc1, Fc4-Fc3).
(§4) Affinity and kinetic parameters were evaluated for interaction with human CD16A and cynomolgus CD16 using a 1:1 Binding model.
In general terms: Surface plasmon resonance follows binding to a sensor surface in real time, without labels.

Assay [4] concerns the target T3, recombinant human CD16A 158V, biotinylated mFc.silenced/Avi-tagged (human, UniProt P08637 17-208, biotinylated (Avi-tag)).
T3 construct: not shown: silenced mouse Fc (mFc.silenced) and Avi-tag
The description is as above. How it is done:
as §3, §4

In assay [5] the target is T4, recombinant human CD16A 158F, biotinylated mFc.silenced/Avi-tagged (human, UniProt P08637 17-208, biotinylated (Avi-tag)).
T4 construct: not shown: silenced mouse Fc (mFc.silenced) and Avi-tag
The description is as above. How it is done:
as §3, §4

The target of assay [6] is T1, human CD16A (158F) on transfected CHO …. Kind of assay: flow cytometry on huCD16A-transfected CHO cells, anti-human IgG-APC detection. On the procedure: To analyze binding of different antibody constructs to CHO cells transfected with human CD16A (cAg_34), relative to CD16 expression by flow cytometry, 1-2×10⁵ were resuspended in 100 μL FACS buffer (PBS (Invitrogen, cat.: 14190-169) containing 2% heat-inactivated FCS (Invitrogen, cat.: 10270-106), and 0.1% sodium azide (Roth, Karlsruhe, Germany, cat.: A1430.0100)) in round-bottom 96-well microtiter plates. After washing in FACS buffer, cells were incubated in 50 μL FACS buffer without antibodies or with titrated antibodies starting at a concentration of 100 μg/mL followed by ten 5-fold serial dilutions for 30 min on ice in the dark. After washing twice, cells were incubated with APC-conjugated goat anti-human IgG (H+L)-APC (Dianova, cat. 109-136-088) for 30 min on ice in the dark. […] After washing, binding was measured by flow cytometry and mean fluorescence intensities (MFI) of cell samples were calculated and corrected for background staining using control cells stained with secondary antibodies only.
as §2

For assay [7] the target is unchanged. Kind of assay: flow cytometry on huCD16A-transfected CHO cells (cAg_34), one-site fit of MFI, experiment 1. On the procedure: as §1, §2
The target is the same in assay [8]. Kind of assay: flow cytometry on huCD16A-transfected CHO cells (cAg_34), one-site fit of MFI, mean of 3 experiments. On the procedure: as §1, §2
Assay [9] addresses T5, CD123 on CD123+ cells (EOL-1 and other CD123+ tumour or patient cells) (human, UniProt P26951 19-378).
T5 construct: whole, on cells; also called interleukin-3 receptor
Kind of assay: flow cytometry on CD123+ EOL-1 cells, anti-human IgG-APC detection. On the procedure:
To analyze binding of CD123xCD16A antibody constructs to CD123+ EOL-1 cells, CD123− A-431 cells and CD123− Karpas-299 cells by flow cytometry, 1×10⁵ cells were resuspended in 100 μL FACS buffer in round-bottom 96-well microtiter plates. After washing in FACS buffer, cells were incubated in 100 μL FACS buffer without antibodies or with titrated antibodies starting at a concentration of 100 μg/mL followed by eight 10-fold serial dilutions for 45 min on ice in the dark. After washing twice, cells were incubated with APC-conjugated goat anti-human IgG (H+L)-APC (1/200 dilution) for 30 min on ice in the dark. After washing, binding was measured by flow cytometry and mean fluorescence intensities (MFI) of cell samples were calculated and corrected for background staining using control cells stained with secondary antibodies only.

T1 sequence (P08637 17-254 limits assumed): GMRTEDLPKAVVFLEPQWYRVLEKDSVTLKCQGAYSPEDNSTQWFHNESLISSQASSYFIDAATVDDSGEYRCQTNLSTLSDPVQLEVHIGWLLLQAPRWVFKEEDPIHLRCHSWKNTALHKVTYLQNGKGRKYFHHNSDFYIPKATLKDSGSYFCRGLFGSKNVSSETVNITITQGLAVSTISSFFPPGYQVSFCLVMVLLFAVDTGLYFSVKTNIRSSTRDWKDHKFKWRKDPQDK
T4 sequence (P08637 17-208): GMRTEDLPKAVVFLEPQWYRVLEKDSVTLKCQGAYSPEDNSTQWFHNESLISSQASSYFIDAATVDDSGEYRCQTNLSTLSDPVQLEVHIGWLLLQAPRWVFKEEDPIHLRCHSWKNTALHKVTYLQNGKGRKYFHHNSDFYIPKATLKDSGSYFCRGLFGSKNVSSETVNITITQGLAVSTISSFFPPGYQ
T2 sequence (Q8SPW2 17-208): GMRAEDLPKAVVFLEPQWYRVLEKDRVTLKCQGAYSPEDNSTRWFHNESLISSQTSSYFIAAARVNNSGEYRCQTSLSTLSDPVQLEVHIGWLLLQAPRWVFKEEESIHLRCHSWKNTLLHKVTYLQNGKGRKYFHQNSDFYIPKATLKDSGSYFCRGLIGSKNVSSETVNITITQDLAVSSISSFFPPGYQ
T3 sequence (P08637 17-208 F176V limits assumed): as the sequence (P08637 17-208) above, with F160V counted along it
T5 sequence (P26951 19-378): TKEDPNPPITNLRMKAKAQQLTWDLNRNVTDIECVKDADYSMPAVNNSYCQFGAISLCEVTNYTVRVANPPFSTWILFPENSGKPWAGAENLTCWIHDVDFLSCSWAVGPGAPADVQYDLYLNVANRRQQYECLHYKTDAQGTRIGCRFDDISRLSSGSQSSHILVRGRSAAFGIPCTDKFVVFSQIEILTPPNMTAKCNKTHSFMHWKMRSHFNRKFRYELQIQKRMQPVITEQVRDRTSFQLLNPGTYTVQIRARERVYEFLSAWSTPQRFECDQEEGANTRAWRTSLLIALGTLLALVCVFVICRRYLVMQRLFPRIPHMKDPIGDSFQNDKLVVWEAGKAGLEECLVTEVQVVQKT

B1: scFv-IgAb_148 (CD123-1xCD16a2) (bispecific antibody)
chain 1: QVQLQQSGAEVKKPGASVKVSCKASGYTFTDYYMKWVKQSHGKSLEWMGDIIPSNGATFYNQKFKGKATLTVDRSTSTAYMELSSLRSEDTAVYYCARSHLLRASWFAYWGQGTLVTVSSASTKGPSVFPLAPSSKSTSGGTAALGCLVKDYFPEPVTVSWNSGALTSGVHTFPAVLQSSGLYSLSSVVTVPSSSLGTQTYICNVNHKPSNTKVDKKVEPKSCDKTHTCPPCPAPEFEGGPSVFLFPPKPKDTLMISRTPEVTCVVVAVSHEDPEVKFNWYVDGVEVHNAKTKPREEQYNSTYRVVSVLTVLHQDWLNGKEYKCKVSNKALPAPIEKTISKAKGQPREPQVYTLPPSREEMTKNQVSLTCLVKGFYPSDIAVEWESNGQPENNYKTTPPVLDSDGSFFLYSKLTVDKSRWQQGNVFSCSVMHEALHNHYTQKSLSLSPGGGGGSGGGGSGGGGSGGGGSGGGGSGGGGSSYVLTQPSSVSVAPGQTATISCGGHNIGSKNVHWYQQRPGQSPVLVIYQDNKRPSGIPERFSGSNSGNTATLTISGTQAMDEADYYCQVWDNYSVLFGGGTKLTVLGGSGGSGGSGGSGGSGGSGGSQVQLVQSGAEVKKPGESLKVSCKASGYTFTSYYMHWVRQAPGQGLEWMGAIEPMYGSTSYAQKFQGRVTMTRDTSTSTVYMELSSLRSEDTAVYYCARGSAYYYDFADYWGQGTLVTVSS
chain 2: not shown
notes: also called CD123xCD16A scFv-IgAb_148; CD16a2xCD123-1
On to B1, for which the Kd in assay [1] came out at 37.9 nM; in [2] it was 18.7 nM; in assay [3], 2.48 nM; in assay [4], 0.75 nM; in assay [5] it was 1.25 nM; in assay [7], 56.2 nM. The Kd in assay [8] was found to be 37.6 nM. Also, the koff was found to be 0.00047 s⁻¹ in [3], 0.00023 s⁻¹ in [4] and 0.00037 s⁻¹ in [5]. Also, the association rate constant (kon) in [3] is 190000 M⁻¹ s⁻¹; in [4], 310000 M⁻¹ s⁻¹; in assay [5] it was 300000 M⁻¹ s⁻¹. Besides, the “EC50 (read off the curve)” value in assay [6] is roughly 20 nM.

B2: scFv-IgAb_265 (CD123-1xCD16a2) (bispecific antibody)
chain 1: QVQLQQSGAEVKKPGASVKVSCKASGYTFTDYYMKWVKQSHGKSLEWMGDIIPSNGATFYNQKFKGKATLTVDRSTSTAYMELSSLRSEDTAVYYCARSHLLRASWFAYWGQGTLVTVSSASTKGPSVFPLAPSSKSTSGGTAALGCLVKDYFPEPVTVSWNSGALTSGVHTFPAVLQSSGLYSLSSVVTVPSSSLGTQTYICNVNHKPSNTKVDKKVEPKSCDKTHTCPPCPAPEFEGGPSVFLFPPKPKDTLMISRTPEVTCVVVAVSHEDPEVKFNWYVDGVEVHNAKTKPREEQYNSTYRVVSVLTVLHQDWLNGKEYKCKVSNKALPAPIEKTISKAKGQPREPQVYTLPPSREEMTKNQVSLTCLVKGFYPSDIAVEWESNGQPENNYKTTPPVLDSDGSFFLYSKLTVDKSRWQQGNVFSCSVMHEALHNHYTQKSLSLSPGGGGGSGGGGSGGGGSGGGGSGGGGSGGGGSSYELTQPLSVSVALGQTARITCGGHNIGSKNVHWYQQKPGQAPVLVIYQDNKRPSGIPERFSGSNSGNTATLTISRAQAGDEADYYCQVWDNYNVLFGCGTKLTVLGGSGGSGGSGGSGGSGGSGGSQVQLVQSGAEVKKPGASVKVSCKASGYTFTSYYMHWVRQAPGQCLEWMGAIEPRYGSTSYAQKFQGRVTMTRDTSTSTVYMELSSLRSEDTAVYYCARGSAYYYDFADYWGQGTLVTVSS
chain 2: not shown
B2: the 50% effective concentration (EC50 (read off the curve)) in [9] is roughly 0.4 nM.

B3: scFv-IgAb_264 (CD123-2xCD16a2) (bispecific antibody)
chain 1: QVQLVQSGAEVKKPGASVKMSCKASGYTFTDYYMKWVKQAPGQGLEWIGDIIPSNGATFYNQKFKGKATLTVDRSISTAYMHLNRLRSDDTAVYYCTRSHLLRASWFAYWGQGTLVTVSSASTKGPSVFPLAPSSKSTSGGTAALGCLVKDYFPEPVTVSWNSGALTSGVHTFPAVLQSSGLYSLSSVVTVPSSSLGTQTYICNVNHKPSNTKVDKKVEPKSCDKTHTCPPCPAPEFEGGPSVFLFPPKPKDTLMISRTPEVTCVVVAVSHEDPEVKFNWYVDGVEVHNAKTKPREEQYNSTYRVVSVLTVLHQDWLNGKEYKCKVSNKALPAPIEKTISKAKGQPREPQVYTLPPSREEMTKNQVSLTCLVKGFYPSDIAVEWESNGQPENNYKTTPPVLDSDGSFFLYSKLTVDKSRWQQGNVFSCSVMHEALHNHYTQKSLSLSPGGGGGSGGGGSGGGGSGGGGSGGGGSGGGGSSYELTQPLSVSVALGQTARITCGGHNIGSKNVHWYQQKPGQAPVLVIYQDNKRPSGIPERFSGSNSGNTATLTISRAQAGDEADYYCQVWDNYNVLFGCGTKLTVLGGSGGSGGSGGSGGSGGSGGSQVQLVQSGAEVKKPGASVKVSCKASGYTFTSYYMHWVRQAPGQCLEWMGAIEPRYGSTSYAQKFQGRVTMTRDTSTSTVYMELSSLRSEDTAVYYCARGSAYYYDFADYWGQGTLVTVSS
chain 2: not shown
notes: also called CD123xCD16A ICE
Take B3: in assay [3], the equilibrium dissociation constant (Kd) was determined as 2.4 nM, the koff was 0.013 s⁻¹ and the kon was 5.2e+06 M⁻¹ s⁻¹. In addition, in assay [4], the Kd worked out at 0.43 nM, the koff came out at 0.0027 s⁻¹ and the kon was determined as 6.3e+06 M⁻¹ s⁻¹. Also, in [5], the Kd worked out at 0.567 nM, the off-rate (koff) amounted to 0.0036 s⁻¹ and the kon was 6.4e+06 M⁻¹ s⁻¹. The “EC50 (read off the curve)” value in assay [9] is roughly 0.4 nM.
